# Measurements published in PMC4887326 (2016).
# Key:
# [1] = biological target: YfiB^L43P/F57A (residues 34–168) (P. aeruginosa, UniProt Q9I4L6 34-168, L43P | F57A); assay: ITC
# [2] = biological target: YfiB^L43P (residues 34–168), purified alone (P. aeruginosa, UniProt Q9I4L6 34-168, L43P); assay: ITC
binder,measurement,setting,value
"YfiR (residues 35–190), purified alone (domain or fragment) DDARTSIEQRSNAVSQVLLGIFSYVRWPKEPAVLQLCVVGPTEYADGLLRGMVQANGRRVHAERRAVDNPDLGTLCNVIYLGVVDERERQQVFRSLAGHPVLSISERGTECSVGSMFCLNVGGPRITFEANLDSIARSGVRVHPSVLKLARRQATP",Ka,[1],1.87e+06 M⁻¹
same,Ka,[2],7.12e+06 M⁻¹
